According to patent US20240067729A1 (PALLEON PHARMACEUTICALS, published 2024):
Where two headings read alike, the source gives them in different places.

Experiments:
[1] = biological target: T1, cynomolgus PD-L1, his tagged (cPD-L1-his) (cynomolgus (Macaca fascicularis), UniProt G7PSE7 19-238); test: ELISA on cynomolgus PD-L1
T1 construct: also called cyPD-L1-His; Cyno PD-L1

[2] = biological target: T2, human PD-L1 Fc fusion (hPD-L1-Fc) (human, UniProt Q9NZQ7 19-238, limits assumed); test: blocking ELISA: antibody titrated + biotin-hPD-1-Fc 1 ug/mL on coated hPD-L1-Fc
T2 construct: not shown: Fc part
From the text: The plate was developed with TMB and Stop buffer, the absorbance at 450 nm was read using SpectraMax plate reader. The A450 absorbance was normalized to the control that without antibody for the percentage values. The curve and IC₅₀ were generated using GraphPad Prism software.

[3] = biological target: T1, cynomolgus PD-L1, his tagged …; test: BLI (ForteBio Octet), mouse IgG on AMC sensor, cPD-L1-his analyte, 1:1 fit
Experimental: (§1) Screening of purified hybridoma antibodies. ForteBio octet binding of purified antibodies to recombinant hPD-L1-his and cPD-L1-his was measured. Mouse IgGs purified from hybridoma supernatant were captured on AMC (Anti-mouse IgG-Capture) Biosensor. hPD-L1-his or cPD-L1-his analytes were titrated from 100 nM in a 2× series dilution. The signal was subtracted with buffer reference and aligned to the baseline. KD, Kon and Koff values were generated using a 1:1 fitting model. […] The X-axes represent assay time in seconds, and the Y-axes represent binding signal on the biosensor. Each line represents the real time signal of antigen association and dissociation at the given antigen concentration in the assay (e.g., the top line represents the signal of the highest antigen concentration in the assay, the second top line represents the second highest concentration in the assay). The vertical dashed line represents the time point that the assay was moved from association step to the dissociation step. All the ForteBio/Octet assays were using standard/conventional settings and the graphs provided in the figures will be understood by one of skill in the art.

[4] = biological target: T3, human PD-L1, his tagged (hPD-L1-his) (human, UniProt Q9NZQ7 19-238, limits assumed); test: BLI (ForteBio Octet), mouse IgG on AMC sensor, hPD-L1-his analyte, 1:1 fit
T3 construct: also called huPD-L1-His; recombinant human PD-L1; not shown: his tag
Experimental: as §1

[5] = biological target: T1, cynomolgus PD-L1, his tagged …; test: BLI (ForteBio Octet), cPD-L1-his
Experimental: (§2) Characterization of chimeric anti-PD-L1 antibodies. ForteBio octet binding of purified chimeric antibodies and recombinant hPD-L1-his and cPD-L1-his was measured. Chimeric human antibodies were captured on AHC (Anti-human IgG-Capture) Biosensor, hPD-L1-his or cPD-L1-his analytes were titrated from 100 nM in a 2× series dilution. The buffer reference was subtracted from the signal and aligned to the baseline. KD, Kon and Koff values were generated using 1:1 fitting model as described above. […]

[6] = biological target: T3, human PD-L1, his tagged (hPD-L1-his); test: BLI (ForteBio Octet), hPD-L1-his
Experimental: as §2

[7] = biological target: T3, human PD-L1, his tagged (hPD-L1-his); test: BLI (ForteBio Octet), hPD-L1-his; remark: listed apart in the source
Experimental: Characterization of chimeric anti-PD-L1 antibodies. ForteBio octet binding of purified chimeric antibodies and recombinant hPD-L1-his and cPD-L1-his was measured. Chimeric human antibodies were captured on AHC (Anti-human IgG-Capture) Biosensor, hPD-L1-his or cPD-L1-his analytes were titrated from 100 nM in a 2× series dilution. The buffer reference was subtracted from the signal and aligned to the baseline. KD, Kon and Koff values were generated using 1:1 fitting model as described above.
Selected h769 antibodies were tested in the blocking ELISA as described in Example 3 herein. […] Selected h769 humanized PD-L1 antibodies were characterized following removal of the deamidation motif in CDR-L3. FIG. 25 depicts the ForteBio octet binding of purified humanized antibodies and recombinant hPD-L1-his was measured.

T3 sequence (Q9NZQ7 19-238 limits assumed): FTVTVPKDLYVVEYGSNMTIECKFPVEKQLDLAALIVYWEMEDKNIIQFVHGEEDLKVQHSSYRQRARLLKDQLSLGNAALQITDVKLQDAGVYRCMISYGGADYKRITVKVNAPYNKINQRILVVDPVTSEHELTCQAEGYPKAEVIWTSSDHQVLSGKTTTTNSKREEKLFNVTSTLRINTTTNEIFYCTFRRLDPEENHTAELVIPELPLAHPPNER
T2 sequence (Q9NZQ7 19-238 limits assumed): as above
T1 sequence (G7PSE7 entry or part of it limits assumed, form in doubt): as the sequence (Q9NZQ7 19-238 limits assumed) above, with A33T, A34S, S62N, R68Q, Q82R, F173L, T185A, T192I, H215L counted along it

Binder	ELISA cyno, Fold over Bkg [1]	IC50 [2]	Kd [3]	Kd [4]	other results
PAL752 (hybridoma 4G6.H4) (antibody, V domains shown, Mouse IgG purified from hybridoma supernatant) VH: EVQLQESGAELARPGASVKLSCKASGHAFTSDSINWVKQRIGQGLEWIGEIYPRSGNPYYNEKFKGKATLTADKSSSTAYMELRSLTSEDSAVYFCATDYYGRYFDVWGTGTTVTVSS VL: DIQMTQSSFSFSVSLGDRVTIICKASEDIYNRLAWYQQKPGNTPRLLISGATSLETGVPSRFSGSGSGKDYTLSITSLQTEDVATYYCQQYWSTPWTFGGGTKLEIK	18.4 fold over background	2.53 nM	4.03 nM	0.789 nM	
PAL759 (hybridoma 13F1.B7) (antibody, V domains shown, Mouse IgG purified from hybridoma supernatant) VH: EVQLQESGAELVRPGASVKLSCKASGYSFTDYYINWVKQRPGQGLEWIARIYPGSGNTYYNEKFKGKATLTAEKSSITAYMQLSSLTSEDSAVYFCARSYYYGSSYLFDYWGQGTTLTVSS VL: DILLTQSPAILSVSPGERVSFSCRASQSIGTSIHWYQQRTNGSPRLLIKYASESISGIPSRFSGSGSGTDFTLSINSVESEDIGDYYCQQSNNWPFTFGSGTKLEIK	13.1 fold over background	4.64 nM		1.14 nM	
PAL771 (hybridoma 2D10.E2.B9) (antibody, V domains shown, Mouse IgG purified from hybridoma supernatant) VH: EVQLQESGAELVKPGASVKLSCTASGFNIKDTYMHWVKQRPEQGLEWIGRIDPANGNTKYDPKFPGKATITADTSSNTAYLQLSSLTSEDAAVYYCARPFNYRFYDVYYFDYWGQGTTLTVST VL: QIVLTQSPAIMSASPGEKVTMTCSASSSVSYMYWYQQKPGSSPRLLIYDTSNLASGVPLRFSGSGSGTSYSLTLSRMEAEDAATYYCQQWSTYPLTFGAGTKLELK			1.15 nM	0.592 nM	
PAL771.2 (hybridoma 2D10.E2.H4) (antibody, V domains shown) VH: EVQLQESGAELVKPGASVKLSCTASGFNIKDTYMHWVKQRPEQGLEWIGRIDPANGNTKYDPKFPGKATITADTSSNTAYLQLSSLTSEDAAVYYCARPFNYRFYDVYYFDYWGQGTTLTVST VL: QIVLTQSPAIMSASPGEKVTMTCSASSSVSYMYWYQQKPGSSPRLLIYDTSNLASGVPLRFSGSGSGTSYSLTLSRMEAEDAATYYCQQWSTYPLTFGAGTKLELK			2.27 nM		
PAL769 (hybridoma 2C1.C8) (antibody, V domains shown, Mouse IgG purified from hybridoma supernatant) VH: EVQLQESGAELVKPGASVTLSCTASGFNIKDTYMHWVKQRPEQGLEWIGRIDPANDNTKYDPKFQDKATITADTSSDTAYLRLSSLTSEDTAVYYCAREGYGGSYGEGYWGQGTTLTVSS VL: SIVMTQTPKFLLVSAGDRVTITCKASQSVSNDVIWYQQKPGQSPKLLIYYASIRFTGVPDRFAGSGYGTDFTFTINTVQAEDLAVYFCQQDYNSPWTFGGGTKLEIK	39.5 fold over background	0.51 nM	1.3 nM	0.758 nM	
PAL767 (hybridoma 1G7.A8) (antibody, V domains shown, Mouse IgG purified from hybridoma supernatant) VH: EVQLQESGPSLVKPSQTLSLTCSVTGDSITSGYWNWIRKFPGNKLEYMGYISYTGSTYYNPSLKRRISITRDTSKNQYYLQLNSVTTEDTATYYCASQGGWLQAMDYWGQGTSVTVSS VL: not shown	36.9 fold over background	0.81 nM	0.0577 nM	0.803 nM	
h769-IF3 (humanized 769-hIgG1 variant) (antibody, V domains shown) VH: EVQLVQSGAEVKKPGATVKISCKVSGFNIKDTYMHWVQQAPGKGLEWMGLIDPANDNTIYAEKFQGRVTITADTSTDTAYMELSSLRSEDTAVYYCAREGYGGSYGEGYWGQGTLVTVSS VL: EIVMTQSPPTLSLSPGERVTLSCRASQSVSNDLSWYQQKPGQAPRLLIYYASIRFTGIPARFSGSGSGTDFTLTISSLQPEDFAVYYCQQDYNSPWTFGQGTKVEIK					Kd [5]: 2.92 nM; koff [5]: 0.000602 s⁻¹; kon [5]: 208000 M⁻¹ s⁻¹; Kd [6]: 2.64 nM; koff [6]: 0.000871 s⁻¹; kon [6]: 330000 M⁻¹ s⁻¹
h769-N93 (humanized 769-hIgG1 variant keeping N93 in CDR-L3) (antibody, V domains shown) VH: EVQLVQSGAEVKKPGATVKISCKVSGFNIKDTYMHWVQQAPGKGLEWMGLIDPANDNTIYAEKFQGRVTITADTSTDTAYMELSSLRSEDTAVYYCAREGYGGSYGEGYWGQGTLVTVSS VL: EIVMTQSPPTLSLSPGERVTLSCRASQSVSNDLSWYQQKPGQAPRLLIYYASIRFTGIPARFSGSGSGTDFTLTISSLQPEDFAVYYCQQDYNSPWTFGQGTKVEIK					koff [7]: 0.00058 s⁻¹; kon [7]: 292000 M⁻¹ s⁻¹
h769-tm2 (humanized 769-hIgG1 variant) (antibody, V domains shown) VH: EVQLVQSGAEVKKPGATVKISCKVSGFNIKDTYMHWVQQAPGKGLEWMGLIDPANDNTIYAEKFQGRVTITADTSTDTAYMELSSLRSEDTAVYYCAREGYGGSYGEGYWGQGTLVTVSS VL: EIVMTQSPPTLSLSPGERVTLSCRASQSVSNDLSWYQQKPGQAPRLLIYYASIRFTGIPARFSGSGYGTDFTLTISSLQPEDFAVYYCQQDYNSPWTFGQGTKVEIK					Kd [5]: 3.01 nM; koff [5]: 0.000593 s⁻¹; kon [5]: 204000 M⁻¹ s⁻¹; Kd [6]: 2.48 nM; koff [6]: 0.000818 s⁻¹; kon [6]: 331000 M⁻¹ s⁻¹
h769-N93A (humanized 769-hIgG1 variant, N93A in CDR-L3) (antibody, V domains shown, Human IgG1) VH: EVQLVQSGAEVKKPGATVKISCKVSGFNIKDTYMHWVQQAPGKGLEWMGLIDPANDNTIYAEKFQGRVTITADTSTDTAYMELSSLRSEDTAVYYCAREGYGGSYGEGYWGQGTLVTVSS VL: EIVMTQSPPTLSLSPGERVTLSCRASQSVSNDLSWYQQKPGQAPRLLIYYASIRFTGIPARFSGSGSGTDFTLTISSLQPEDFAVYYCQQDYASPWTFGQGTKVEIK					Kd [7]: 1.46 nM; koff [7]: 0.000414 s⁻¹; kon [7]: 284000 M⁻¹ s⁻¹
h769-tm3 (humanized 769-hIgG1 variant) (antibody, V domains shown) VH: EVQLVQSGAEVKKPGATVKISCKVSGFNIKDTYMHWVQQAPGKGLEWMGLIDPANDNTIYAEKFQGRVTITADTSTDTAYMELSSLRSEDTAVYYCAREGYGGSYGEGYWGQGTLVTVSS VL: EIVMTQSPPTLSLSPGERVTLSCRASQSVSNDLSWYQQKPGQAPRLLIYYASIRFTGIPARFSGSGSGTDFTLTISSLQPEDFAVYFCQQDYNSPWTFGQGTKVEIK					Kd [5]: 3.11 nM; koff [5]: 0.00065 s⁻¹; kon [5]: 211000 M⁻¹ s⁻¹; Kd [6]: 2.95 nM; koff [6]: 0.000904 s⁻¹; kon [6]: 311000 M⁻¹ s⁻¹

Further lines, with some results ahead:

ELISA cyno, Fold over Bkg [1]	IC50 [2]	Kd [3]	Kd [4]	Binder	other results
38.2 fold over background	4.07 nM	0.283 nM	0.277 nM	PAL787(3D10) (hybridoma CKH-3D10) (antibody, V domains shown, Mouse IgG purified from hybridoma supernatant) VH: QVTLKESGPGILQPSQTLSLTCSFSGFSLSTYGLGVGWIRQPSGKGLEWLANIWWNDDKFYDSVLKSRLTISKDTSNNQVFLKISSVDTSETATYYCAQTLHYYDGIAWFAYWGQGTLVTVSA VL: DIVMTQSQNFMSTSVGDRVSVTCKASHYVGTFVAWYQQKPGQSPKALIFSTSYRHTGVPDRFTGSGSGTDFTLTISNVQSEDLADYFCQQYYNSPLTFGAGTKLELK	
24.8 fold over background	0.89 nM	0.392 nM	0.188 nM	PAL788(3E3) (hybridoma CKH-3E3) (antibody, V domains shown, Mouse IgG purified from hybridoma supernatant) VH: QVQLQQPGAELVKPGASVKLSCKASGYTFTSNWMNWVKQRPGRGLEWIGRIHPSDSETHYHQKFKSKATLTVDKSSSTAYIQLSSLTSEDSAVYYCAHSSGDYGRDYWGQGTTLTVSS VL: NIVLTQSPASLAVSLGQRATISCRASESVDSYGNSFMHWYQQKPGQPPKLLIYLASNLQSGVPARFSGSGSRTDFTLTIDPVEADDAATYYCQQNNEDPWTFGGGTKLEIK	
4.98 fold over background	0.68 nM	0.642 nM	1.02 nM	PAL785 (hybridoma 16G1.A5) (antibody, V domains shown, Mouse IgG purified from hybridoma supernatant) VH: EVQLQESGPELVKPGTSVKMSCKASGYTFTSYVMHWVKQRPGQGLEWIGYINPYNDGSKYNEKFKGKATLTSDTSSSTAYMELSSLTSEDSAVYYCAKQTLDFWGQGTSVTVST VL: DIVLTQSPASLAVSLGQRATISCRASESVEFYGTTLMQWYQQKPGQPPKLLIYAASNVESGVPARFSGSGSGTDFSLNIHPVEEGDIGMYFCQQSRKVPYTFGGGTKLEIK	
